This test addresses T1, α4β1 (R&D Systems #5668-A4) (UniProt P13612 34-977; P05556 21-728).
T1 construct: bought; also called soluble α4β1
Nature of the test: α4β1-VCAM competition ELISA. On the procedure:
The solution was removed by shaking and then blocked with 250 ul of 1% BSA in 1×PBS per well. The wells were then incubated at room temperature for 1 hr with shaking. Each well was then washed once with wash buffer (50 mM Tris-HCl pH7.6, 100 mM NaCL, 1 mM MnCl2 or MgCl2, 0.05% Tween-20). 25 ul of serial dilutions of peptides starting at 200 μM in assay buffer (Assay buffer: 50 mM Tris-HCl pH7.6, 100 mM NaCl, 1 mM MnCl2 or MgCl2, 0.05% Tween-20) was added to each well. Additionally, 25 ul of α4β1 (R&D Systems #5668-A4) was added to each well at a fixed concentration of 120 nM. The final peptide and α4β1 concentrations were 100 μM and 60 nM, respectively. The plates were then incubated at 37° C. for 2 hr. The solution was then removed by shaking, and each well was washed three times with wash buffer. 50 ul of 9F10 antibody at 4 ug/ml (purified mouse anti-human CD49d, BD Bioscience Cat#555502) was then added to each well, and the plate was incubated at room temperature for 1 hr with shaking. The solution was again removed by shaking, and each well was washed three times with wash buffer. 50 ul of peroxidase-conjugated AffiniPure Goat anti-mouse IgG (Jackson immune research cat #115-035-003) diluted in 1:5000 in assay buffer was added to each well. The plate was incubated at room temperature for 30 min with shaking. […] The reaction was stepped with 2N H₂SO₄ and absorbance was read at 450 nm.

Bridge positions count the residues as written; N and C are the ends. Square brackets hold non-standard residues; d marks the D form. Phe(4-COOH) = N[C@@H](Cc1ccc(C(=O)O)cc1)C(=O)O; NMeR = CN[C@@H](CCCNC(=N)N)C(=O)O; Pen = CC(C)(S)[C@H](N)C(=O)O

B1: SEQ ID NO 129 (peptide)
peptide: Ac-[Pen][NMeR]SDTL[Pen][Phe(4-COOH)]E[dK]-NH2
modifications: disulfide 1-7; not fully specified (residue 10); printed as (Ac-Pen-(N-Me-R)-S-D-T-L-Pen-F(4-COOH)-E-k-NH2)2-DIG; also: homodimer of two subunits joined by DIG linker
As to B1, the concentration for half-maximal inhibition (IC50) is > 100 nM.

For the origin of these results see patent US20160159862A1 (PROTAGONIST THERAPEUTICS, published 2016).
